One test concerns Rat1a-MYC cells. Description: In vitro growth of Rat1a-MYC cells overexpressing dominant negative Rcl E93A. It counts as cell-based, rat. The settings on record: Rat1a-MYC cells overexpressing the mutant. From the text:
(§1) In addition to the studies on RCL (C6orf108) gain-of-function in tumorigenesis, we determined the effect of loss of RCL function on tumorigenesis with the Rat1a-Myc cells. We generated control Rat1a-MYC cells and Rat1a-MYC cells that overexpress the dominant negative Rcl E 93A mutant. Two independent control transfected cell pools and two independent Rcl E 93A Rat1a-MYC transfectant cell pools were studied (FIG. 7).

In test [1] the test system is Rat1a-MYC cell xenografts. In words: Nude mouse xenografts of Rat1a-MYC-Rcl-E93A cells, tumorigenicity. It counts as in vivo. Conditions: two independent cell pools.
Text: FIG. 7A. Immunoblot showing expression of Rcl-E93A protein in 293T cells; pPURO (pBabe-Puro) represents control transfected cells; none=untransfected cells. B. Immunoblot showing expression of Rcl and Rcl-E 93A in Rat1a-MYC cells (which have high levels of endogenous Rcl). Numbers at the top represents different cell pools. Numbers at the bottom represents normalized relative expression. C. Agarose gel showing expression of Rcl-E93A mRNA in transfectants by RT-PCR of control pPURO or Rcl-E93A expressing Rat1a-MYC cell pools. Signals are dependent on reverse transcriptase (not shown) D. Tumor sizes of pBABE (pools 1 and 2) control Rat1a-Myc cell pools compared with RCL E93A expressing Rat1a-MYC cell pools (E93A#1+E93A#4). Average tumor sizes determined by caliper are shown for groups of nine animals. Error bars are standard deviations.
as §1

B1: Rcl E 93A: dominant negative RCL mutant, Glu-93 replaced by Ala, overexpressed in Rat1a-MYC cells (protein, UniProt O35820 2-163, looked up, variant E93A)
5-hydroxymethyl-dUMP …: AASGEQAPCSVYFCGSIRGGREDQALYARIVSRLRRYGKVLTEHVADAELEPLGEEAAGGDQFIHEQDLNWLQQADVVVAEVTQPSLGVGYALGRAVALGKPILCLFRPQSGRVLSAMIRGAADGSRFQVWDYAEGEVETMLDRYFEAYLPQKTASSSHPSA
In the case of B1, the “effect on growth rates in vitro” value with Rat1a-MYC cells is listed as “does not affect growth rates”. Further, the “tumorigenicity of xenografts versus control cell pools” value in test [1] was “remarkable decrease in tumorigenicity”.
